Results: patent US20140072613A1, “Compositions and Methods for Treating Cutaneous Scarring” (priority 2012, published 2014)

Tests used:
Experiment in all cases: cell-based or functional assay
[1] = molecular target: MSK1(h) (human) (UniProt O75582)
[2] = molecular target: ROCK-I(h) (human) (UniProt Q13464)
[3] = molecular target: GRK6(h) (human) (UniProt P43250)
[4] = molecular target: T1, Rse(h) (human) (UniProt Q06418)
T1 sequence (looked up): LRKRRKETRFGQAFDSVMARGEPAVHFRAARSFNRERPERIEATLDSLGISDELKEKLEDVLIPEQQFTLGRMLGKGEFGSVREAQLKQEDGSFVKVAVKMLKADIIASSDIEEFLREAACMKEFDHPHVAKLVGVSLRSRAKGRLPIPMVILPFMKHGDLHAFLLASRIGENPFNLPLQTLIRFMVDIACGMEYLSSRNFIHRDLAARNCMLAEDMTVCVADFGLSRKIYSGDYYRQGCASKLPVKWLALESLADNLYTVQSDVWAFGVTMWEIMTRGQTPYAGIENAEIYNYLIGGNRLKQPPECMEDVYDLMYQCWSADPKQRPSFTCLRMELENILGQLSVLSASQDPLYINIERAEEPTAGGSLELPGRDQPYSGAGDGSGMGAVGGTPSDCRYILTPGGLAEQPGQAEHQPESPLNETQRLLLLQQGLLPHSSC

[5] = molecular target: EGFR(T790M,L858R)(h) (human) (UniProt P00533)
[6] = molecular target: Pim-1(h) (human) (UniProt P11309)
[7] = molecular target: MLK1(h) (human) (UniProt P80192)
[8] = molecular target: JNK2α2(h) (human) (UniProt P45984)
[9] = molecular target: PAK2(h) (human) (UniProt Q13177)
[10] = molecular target: CLK3(h) (human) (UniProt P49761)
[11] = molecular target: VRK2(h) (human) (UniProt Q86Y07)
[12] = molecular target: EGFR(L861Q)(h) (human) (UniProt P00533)
[13] = molecular target: ZIPK(h) (human) (UniProt O43293)
[14] = molecular target: Met(D1246H)(h) (human) (UniProt P08581)
[15] = molecular target: CaMKIIδ(h) (human) (UniProt Q13557)
[16] = molecular target: Met(Y1248C)(h) (human) (UniProt P08581)
[17] = molecular target: IGF-1R(h), activated (human) (UniProt P08069)
[18] = molecular target: PKGη(h) (human)
[19] = molecular target: Pim-3(h) (human) (UniProt Q86V86)
[20] = molecular target: DYRK2(h) (human) (UniProt Q92630)
[21] = molecular target: Hck(h) activated (human) (UniProt P08631)
[22] = molecular target: HIPK3(h) (human) (UniProt Q9H422)
[23] = molecular target: TLK2(h) (human) (UniProt Q86UE8)
[24] = molecular target: BTK(h) (human) (UniProt Q06187)
[25] = molecular target: MINK(h) (human) (UniProt Q8N4C8)
[26] = molecular target: Rsk1(h) (human) (UniProt Q15418)
[27] = molecular target: GSK3α(h) (human) (UniProt P49840)
[28] = molecular target: MAPKAP-K2(h) (human) (UniProt P49137)
[29] = molecular target: T2, IRAK4(h) (human) (UniProt Q9NWZ3)
T2 sequence (looked up): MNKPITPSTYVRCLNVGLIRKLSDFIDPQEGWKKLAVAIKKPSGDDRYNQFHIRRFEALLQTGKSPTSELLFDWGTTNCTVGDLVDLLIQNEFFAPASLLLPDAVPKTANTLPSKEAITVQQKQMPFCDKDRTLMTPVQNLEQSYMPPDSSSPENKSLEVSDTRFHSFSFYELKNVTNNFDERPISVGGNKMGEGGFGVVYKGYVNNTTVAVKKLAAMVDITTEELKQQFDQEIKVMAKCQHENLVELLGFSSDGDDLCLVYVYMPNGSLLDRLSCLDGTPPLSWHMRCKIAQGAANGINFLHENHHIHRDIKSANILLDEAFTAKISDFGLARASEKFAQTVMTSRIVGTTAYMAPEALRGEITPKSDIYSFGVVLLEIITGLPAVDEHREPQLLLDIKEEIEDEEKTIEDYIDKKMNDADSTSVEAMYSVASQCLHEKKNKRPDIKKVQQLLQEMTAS

[30] = molecular target: Pim-2(h) (human) (UniProt Q9P1W9)
[31] = molecular target: Ros(h) (human) (UniProt P08922)
[32] = molecular target: HIPK2(h) (human) (UniProt Q9H2X6)
[33] = molecular target: SRPK1(h) (human) (UniProt Q96SB4)
[34] = molecular target: Aurora-B(h) (human) (UniProt Q96GD4)
[35] = molecular target: T3, TAO1(h) (human) (UniProt Q7L7X3)
T3 sequence (looked up): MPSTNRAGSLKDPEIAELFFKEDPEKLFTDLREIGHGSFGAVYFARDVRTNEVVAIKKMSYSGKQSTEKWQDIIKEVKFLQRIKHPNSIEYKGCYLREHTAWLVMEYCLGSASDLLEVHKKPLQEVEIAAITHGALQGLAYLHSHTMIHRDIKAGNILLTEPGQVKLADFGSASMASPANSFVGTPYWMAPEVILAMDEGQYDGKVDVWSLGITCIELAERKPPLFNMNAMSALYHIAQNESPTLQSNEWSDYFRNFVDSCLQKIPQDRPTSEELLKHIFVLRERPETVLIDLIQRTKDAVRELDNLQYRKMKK

Chain of MAPKAP-K2(h) (human) (P49137 46-400 limits assumed): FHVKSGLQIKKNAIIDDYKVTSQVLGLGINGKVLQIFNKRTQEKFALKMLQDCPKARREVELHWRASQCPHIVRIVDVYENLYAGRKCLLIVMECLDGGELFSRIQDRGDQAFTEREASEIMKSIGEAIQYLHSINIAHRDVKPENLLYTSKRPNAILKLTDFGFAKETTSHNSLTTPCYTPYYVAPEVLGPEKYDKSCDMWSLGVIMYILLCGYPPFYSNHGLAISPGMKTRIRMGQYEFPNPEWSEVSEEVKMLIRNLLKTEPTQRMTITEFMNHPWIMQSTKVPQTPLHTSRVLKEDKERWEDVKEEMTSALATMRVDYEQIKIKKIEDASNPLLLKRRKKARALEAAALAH
Chain of BTK(h) (human) (Q06187 whole entry): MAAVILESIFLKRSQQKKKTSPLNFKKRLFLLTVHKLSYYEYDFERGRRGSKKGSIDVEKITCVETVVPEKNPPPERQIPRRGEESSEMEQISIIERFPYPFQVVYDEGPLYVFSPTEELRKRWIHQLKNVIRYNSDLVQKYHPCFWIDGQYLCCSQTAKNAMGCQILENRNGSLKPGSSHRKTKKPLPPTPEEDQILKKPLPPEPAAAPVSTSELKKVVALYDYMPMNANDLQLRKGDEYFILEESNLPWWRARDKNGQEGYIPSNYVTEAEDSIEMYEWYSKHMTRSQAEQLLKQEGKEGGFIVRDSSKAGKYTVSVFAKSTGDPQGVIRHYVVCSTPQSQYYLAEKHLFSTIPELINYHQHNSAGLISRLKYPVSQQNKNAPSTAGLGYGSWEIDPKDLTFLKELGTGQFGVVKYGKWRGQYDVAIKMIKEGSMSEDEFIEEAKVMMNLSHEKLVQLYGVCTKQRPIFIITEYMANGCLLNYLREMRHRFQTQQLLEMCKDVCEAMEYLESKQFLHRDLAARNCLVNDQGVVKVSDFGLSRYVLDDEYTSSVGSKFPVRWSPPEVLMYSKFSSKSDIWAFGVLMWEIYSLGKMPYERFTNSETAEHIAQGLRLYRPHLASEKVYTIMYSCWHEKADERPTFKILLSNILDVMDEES
Chain of CLK3(h) (human) (P49761 whole entry): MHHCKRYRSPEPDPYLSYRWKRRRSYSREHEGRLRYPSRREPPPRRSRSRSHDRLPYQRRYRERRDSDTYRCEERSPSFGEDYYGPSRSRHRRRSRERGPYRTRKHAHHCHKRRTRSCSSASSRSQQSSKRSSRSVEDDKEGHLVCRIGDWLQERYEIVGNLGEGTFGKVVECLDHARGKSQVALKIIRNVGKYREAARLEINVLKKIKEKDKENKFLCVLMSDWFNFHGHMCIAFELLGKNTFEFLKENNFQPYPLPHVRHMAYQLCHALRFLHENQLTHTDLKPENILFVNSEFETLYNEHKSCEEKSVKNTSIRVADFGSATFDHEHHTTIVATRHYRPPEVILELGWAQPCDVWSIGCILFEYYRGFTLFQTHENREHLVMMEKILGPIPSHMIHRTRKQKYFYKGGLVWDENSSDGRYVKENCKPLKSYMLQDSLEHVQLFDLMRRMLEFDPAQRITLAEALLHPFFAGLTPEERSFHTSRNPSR
Chain of DYRK2(h) (human) (Q92630 whole entry): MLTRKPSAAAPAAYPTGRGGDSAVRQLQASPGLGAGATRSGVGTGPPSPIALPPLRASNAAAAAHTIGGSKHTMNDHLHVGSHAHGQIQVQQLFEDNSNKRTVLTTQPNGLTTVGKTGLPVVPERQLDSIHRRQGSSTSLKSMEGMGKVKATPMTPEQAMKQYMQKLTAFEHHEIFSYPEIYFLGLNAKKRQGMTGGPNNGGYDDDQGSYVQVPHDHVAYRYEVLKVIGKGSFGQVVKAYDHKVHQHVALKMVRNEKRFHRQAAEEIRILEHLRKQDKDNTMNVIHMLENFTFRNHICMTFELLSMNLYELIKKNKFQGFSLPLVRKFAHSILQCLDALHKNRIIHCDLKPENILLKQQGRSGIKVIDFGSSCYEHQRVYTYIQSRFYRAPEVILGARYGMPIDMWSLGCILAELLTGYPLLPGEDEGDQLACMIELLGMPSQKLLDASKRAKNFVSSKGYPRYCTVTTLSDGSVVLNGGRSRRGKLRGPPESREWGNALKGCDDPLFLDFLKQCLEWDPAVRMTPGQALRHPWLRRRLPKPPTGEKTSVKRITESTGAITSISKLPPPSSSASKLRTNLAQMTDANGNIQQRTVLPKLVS
Chain of ZIPK(h) (human) (O43293 whole entry): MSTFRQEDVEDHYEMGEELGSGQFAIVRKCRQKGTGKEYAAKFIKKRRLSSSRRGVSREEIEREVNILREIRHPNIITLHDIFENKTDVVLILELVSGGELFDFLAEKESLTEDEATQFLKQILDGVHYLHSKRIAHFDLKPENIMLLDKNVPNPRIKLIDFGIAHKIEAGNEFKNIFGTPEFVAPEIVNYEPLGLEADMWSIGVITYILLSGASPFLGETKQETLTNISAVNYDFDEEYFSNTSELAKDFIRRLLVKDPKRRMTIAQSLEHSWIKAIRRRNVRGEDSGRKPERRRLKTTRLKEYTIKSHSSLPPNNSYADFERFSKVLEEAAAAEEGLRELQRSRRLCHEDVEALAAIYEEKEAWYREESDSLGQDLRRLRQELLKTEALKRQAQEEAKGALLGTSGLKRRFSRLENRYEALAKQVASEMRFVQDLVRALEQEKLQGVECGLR
Chain of HIPK2(h) (human) (Q9H2X6 165-564 limits assumed): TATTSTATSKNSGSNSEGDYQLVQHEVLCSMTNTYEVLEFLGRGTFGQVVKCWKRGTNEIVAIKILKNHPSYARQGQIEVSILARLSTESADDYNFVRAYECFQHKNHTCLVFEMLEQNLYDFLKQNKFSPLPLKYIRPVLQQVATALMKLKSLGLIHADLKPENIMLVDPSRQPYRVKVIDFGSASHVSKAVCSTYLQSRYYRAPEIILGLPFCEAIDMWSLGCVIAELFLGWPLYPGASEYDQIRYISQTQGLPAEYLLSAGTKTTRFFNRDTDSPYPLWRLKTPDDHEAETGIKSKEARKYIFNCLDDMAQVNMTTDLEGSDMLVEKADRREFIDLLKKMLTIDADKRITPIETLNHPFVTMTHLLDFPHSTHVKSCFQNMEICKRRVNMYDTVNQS
Chain of Ros(h) (human) (P08922 1883-2347 limits assumed): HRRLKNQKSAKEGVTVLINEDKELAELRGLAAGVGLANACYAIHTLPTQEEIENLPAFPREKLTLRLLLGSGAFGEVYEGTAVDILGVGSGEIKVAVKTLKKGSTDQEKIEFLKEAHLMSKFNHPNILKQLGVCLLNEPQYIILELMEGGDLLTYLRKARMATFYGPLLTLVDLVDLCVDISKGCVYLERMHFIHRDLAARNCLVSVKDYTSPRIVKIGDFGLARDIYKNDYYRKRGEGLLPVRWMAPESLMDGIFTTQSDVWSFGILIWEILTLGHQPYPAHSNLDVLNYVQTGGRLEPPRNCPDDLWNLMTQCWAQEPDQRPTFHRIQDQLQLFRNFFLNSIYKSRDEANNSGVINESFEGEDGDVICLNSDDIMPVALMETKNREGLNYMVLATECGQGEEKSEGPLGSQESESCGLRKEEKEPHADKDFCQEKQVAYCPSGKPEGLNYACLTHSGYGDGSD
Chain of GRK6(h) (human) (P43250 whole entry): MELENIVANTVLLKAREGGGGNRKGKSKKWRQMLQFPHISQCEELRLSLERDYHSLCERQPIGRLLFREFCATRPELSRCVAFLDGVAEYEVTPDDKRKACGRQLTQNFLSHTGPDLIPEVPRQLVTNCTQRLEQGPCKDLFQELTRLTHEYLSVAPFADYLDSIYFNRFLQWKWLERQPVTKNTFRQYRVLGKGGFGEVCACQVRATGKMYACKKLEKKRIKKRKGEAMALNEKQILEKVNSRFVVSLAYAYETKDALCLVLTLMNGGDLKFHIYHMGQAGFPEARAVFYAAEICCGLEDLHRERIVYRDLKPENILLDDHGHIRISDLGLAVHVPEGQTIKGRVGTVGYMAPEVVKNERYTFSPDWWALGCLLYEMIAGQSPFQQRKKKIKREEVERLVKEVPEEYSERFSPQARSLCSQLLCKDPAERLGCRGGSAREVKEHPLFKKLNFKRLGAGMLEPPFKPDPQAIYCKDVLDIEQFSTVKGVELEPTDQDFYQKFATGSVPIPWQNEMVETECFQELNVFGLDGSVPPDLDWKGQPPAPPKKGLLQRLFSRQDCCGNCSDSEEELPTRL
Chain of Hck(h) activated (human) (P08631 251-518 limits assumed): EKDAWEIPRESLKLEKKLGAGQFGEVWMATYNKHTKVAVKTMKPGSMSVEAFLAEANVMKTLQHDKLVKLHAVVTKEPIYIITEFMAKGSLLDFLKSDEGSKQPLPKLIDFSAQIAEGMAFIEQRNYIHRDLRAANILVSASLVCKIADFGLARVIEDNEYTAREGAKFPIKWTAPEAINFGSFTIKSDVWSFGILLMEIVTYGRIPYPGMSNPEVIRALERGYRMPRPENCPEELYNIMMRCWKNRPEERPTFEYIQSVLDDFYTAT
Chain of Aurora-B(h) (human) (Q96GD4 whole entry): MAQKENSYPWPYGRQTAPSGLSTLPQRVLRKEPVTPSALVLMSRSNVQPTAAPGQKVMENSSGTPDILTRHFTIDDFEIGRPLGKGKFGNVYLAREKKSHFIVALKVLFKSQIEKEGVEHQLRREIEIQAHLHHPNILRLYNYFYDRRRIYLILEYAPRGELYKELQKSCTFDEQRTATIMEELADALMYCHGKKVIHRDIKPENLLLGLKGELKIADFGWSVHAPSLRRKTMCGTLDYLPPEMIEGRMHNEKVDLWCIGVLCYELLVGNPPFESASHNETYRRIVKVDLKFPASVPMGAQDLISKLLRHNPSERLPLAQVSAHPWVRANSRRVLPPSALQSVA

MMI-0500 (peptide)
% activity, 100 µM [1]: 8% | % activity, 100 µM [2]: 17% | % activity, 100 µM [3]: 174% | % activity, 100 µM [4]: 63% | % activity, 100 µM [5]: 53% | % activity, 100 µM [6]: 0% | % activity, 100 µM [7]: 43% | % activity, 100 µM [8]: 81% | % activity, 100 µM [9]: 44% | % activity, 100 µM [10]: 76% | % activity, 100 µM [11]: 169% | % activity, 100 µM [12]: 15% | % activity, 100 µM [13]: 1% | % activity, 100 µM [14]: 150% | % activity, 100 µM [15]: 1% | % activity, 100 µM [16]: 73% | % activity, 100 µM [17]: 45% | % activity, 100 µM [18]: 45% | % activity, 100 µM [19]: 37% | % activity, 100 µM [20]: 127% | % activity, 100 µM [21]: 67% | % activity, 100 µM [22]: 85% | % activity, 100 µM [23]: 133% | % activity, 100 µM [24]: 18% | % activity, 100 µM [25]: 5% | % activity, 100 µM [26]: 34% | % activity, 100 µM [27]: 175% | % activity, 100 µM [28]: 9% | inhibition of kinase activity at 100 µM [28]: > 65% | % activity, 100 µM [29]: 3% | % activity, 100 µM [30]: 46% | % activity, 100 µM [31]: 150% | % activity, 100 µM [32]: 38% | % activity, 100 µM [33]: 80% | % activity, 100 µM [34]: 5% | % activity, 100 µM [35]: 24%
